Data published in the Human Domainome abundance scans (Beltran et al. 2025).
± gives the uncertainty stated by the source.

B1: Ventral anterior homeobox 1, residues 102 to 157; numbered along this chain, Q5SQQ9 (parent)
chain: RTRTSFTAEQLYRLEMEFQRCQYVVGRERTELARQLNLSETQVKVWFQNRRTKQKK

Variants of: B1
Assay: abundance fitness (aPCA) (normalised: wild type 0, dead -1); higher = more abundant; growth selection in yeast, the domain comes from the species named
Settings: Homo sapiens

Row | Variant | abundance fitness
1 | T7M | -0.452 ± 0.23
2 | T7C | -0.335 ± 0.18
3 | T7N | -0.105 ± 0.27
4 | T7Y | -0.652 ± 0.34
5 | T7A | -0.411 ± 0.12
6 | T7I | -0.56 ± 0.21
7 | T7W | -0.925 ± 0.25
8 | T7E | -0.279 ± 0.13
9 | T7D | -0.043 ± 0.18
10 | T7R | -0.499 ± 0.11
11 | T7G | -0.311 ± 0.09
12 | T7H | -0.407 ± 0.28
13 | T7P | -0.734 ± 0.24
14 | T7K | -0.589 ± 0.23
15 | T7L | -0.704 ± 0.15
16 | T7F | -0.77 ± 0.27
17 | T7S | -0.158 ± 0.14
18 | T7V | -0.466 ± 0.13
19 | E9F | 0.005 ± 0.16
20 | E9Q | -0.207 ± 0.21
21 | E9P | -0.669 ± 0.22
22 | E9L | -0.439 ± 0.11
23 | E9A | -0.244 ± 0.13
24 | E9R | -0.455 ± 0.11

Row | Variant | abundance fitness
25 | E9T | -0.464 ± 0.19
26 | E9D | -0.135 ± 0.18
27 | E9H | -0.509 ± 0.25
28 | E9N | -0.733 ± 0.34
29 | E9V | -0.157 ± 0.11
30 | E9M | -0.235 ± 0.18
31 | E9C | -0.299 ± 0.18
32 | E9W | -0.12 ± 0.13
33 | E9S | -0.408 ± 0.14
34 | E9Y | -0.398 ± 0.23
35 | E9K | -0.453 ± 0.29
36 | E9I | -0.456 ± 0.21
37 | Y12L | -0.086 ± 0.12
38 | Y12F | -0.13 ± 0.21
39 | Y12W | 0.001 ± 0.15
40 | Y12S | 0.069 ± 0.11
41 | Y12A | 0.044 ± 0.099
42 | Y12V | -0.085 ± 0.096
43 | Y12M | 0.102 ± 0.15
44 | Y12P | -0.967 ± 0.21
45 | Y12T | 0.018 ± 0.14
46 | Y12C | -0.176 ± 0.2
47 | Y12I | -0.188 ± 0.3
48 | L11N | 0.18 ± 0.17

Row | Variant | abundance fitness
49 | L11R | -0.61 ± 0.12
50 | L11E | 0.308 ± 0.14
51 | L11K | -0.274 ± 0.26
52 | L11H | 0.005 ± 0.12
53 | L11W | -0.494 ± 0.16
54 | L11T | -0.149 ± 0.16
55 | L11Q | 0.231 ± 0.17
56 | L11M | -0.172 ± 0.19
57 | L11G | -0.254 ± 0.1
58 | L11Y | -0.335 ± 0.16
59 | L11D | 0.022 ± 0.12
60 | L11F | -0.159 ± 0.16
61 | L11P | -0.893 ± 0.17
62 | L11A | -0.075 ± 0.096
63 | L11I | -0.059 ± 0.21
64 | E17F | -0.031 ± 0.36
65 | E17D | -0.65 ± 0.29
66 | E17H | -0.044 ± 0.23
67 | E17V | -0.296 ± 0.15
68 | E17Q | -0.296 ± 0.27
69 | E17G | -0.679 ± 0.14
70 | E17W | -0.359 ± 0.2
71 | E17C | -0.209 ± 0.22
72 | E17L | -0.558 ± 0.2

Row | Variant | abundance fitness
73 | E17M | -0.281 ± 0.23
74 | E17T | -0.297 ± 0.23
75 | E17I | -0.544 ± 0.37
76 | E17K | -0.604 ± 0.3
77 | E17R | -0.421 ± 0.13
78 | E17S | -0.294 ± 0.16
79 | E15C | -0.803 ± 0.32
80 | E15N | -0.564 ± 0.24
81 | E15W | -0.71 ± 0.25
82 | E15P | -1.07 ± 0.36
83 | E15H | -1.08 ± 0.44
84 | E15G | -0.823 ± 0.14
85 | E15S | -0.766 ± 0.2
86 | E15F | -0.533 ± 0.33
87 | E15A | -0.876 ± 0.17
88 | E15Q | -1.01 ± 0.27
89 | E15L | -0.44 ± 0.22
90 | E15M | -0.982 ± 0.27
91 | E15R | -0.787 ± 0.13
92 | E15V | -0.847 ± 0.17
93 | E15D | -0.379 ± 0.22
94 | L14S | -0.906 ± 0.2
95 | L14W | -0.747 ± 0.26
96 | L14A | -0.708 ± 0.21

Row | Variant | abundance fitness
97 | L14F | -0.789 ± 0.38
98 | L14T | -0.843 ± 0.38
99 | L14I | -0.54 ± 0.49
100 | L14V | -0.619 ± 0.19
101 | L14C | -0.518 ± 0.23
102 | L14M | -0.368 ± 0.24
103 | Q19C | -0.225 ± 0.16
104 | Q19A | -0.002 ± 0.12
105 | R13A | 0.089 ± 0.12
106 | R13K | -0.004 ± 0.29
107 | R13V | -0.311 ± 0.15
108 | R13P | -0.849 ± 0.15
109 | R13N | -0.283 ± 0.2
110 | R13M | -0.022 ± 0.2
111 | R13H | -0.066 ± 0.15
112 | R13S | -0.074 ± 0.097
113 | R13Y | -0.316 ± 0.19
114 | R13G | -0.207 ± 0.18
115 | R13I | 0.092 ± 0.18
116 | R13L | -0.068 ± 0.1
117 | R13T | -0.113 ± 0.13
118 | R13W | -0.211 ± 0.18
119 | R13C | -0.161 ± 0.13
120 | R13Q | 0.163 ± 0.18

Row | Variant | abundance fitness
121 | R13F | -0.29 ± 0.18
122 | R13E | -0.513 ± 0.29
123 | F18Y | -0.124 ± 0.23
124 | F18I | -0.689 ± 0.34
125 | F18C | -0.741 ± 0.27
126 | F18L | -0.927 ± 0.17
127 | F18W | -0.181 ± 0.14
128 | F18V | -0.887 ± 0.18
129 | F18M | -0.674 ± 0.21
130 | F6R | -0.71 ± 0.12
131 | F6W | -0.052 ± 0.12
132 | F6V | -0.105 ± 0.14
133 | F6T | -0.556 ± 0.16
134 | F6S | -0.729 ± 0.14
135 | F6Q | -0.347 ± 0.17
136 | A8I | -0.363 ± 0.4
137 | A8V | -0.154 ± 0.11
138 | A8L | -0.14 ± 0.11
139 | A8E | 0 ± 0.16
140 | A8C | -0.212 ± 0.17
141 | A8M | -0.104 ± 0.21
142 | A8P | -0.049 ± 0.19
143 | A8N | 0.059 ± 0.29
144 | A8W | -0.348 ± 0.16

Row | Variant | abundance fitness
145 | A8R | -0.332 ± 0.11
146 | A8H | -0.817 ± 0.39
147 | A8Y | -0.158 ± 0.29
148 | A8Q | -0.301 ± 0.2
149 | A8F | -0.473 ± 0.21
150 | A8S | -0.064 ± 0.13
151 | A8G | -0.205 ± 0.084
152 | M16A | -0.043 ± 0.14
153 | M16Q | 0.008 ± 0.2
154 | M16C | -0.055 ± 0.21
155 | M16R | -0.233 ± 0.11
156 | M16N | -0.407 ± 0.26
157 | M16V | -0.09 ± 0.12
158 | M16G | -0.109 ± 0.11
159 | M16T | -0.076 ± 0.2
160 | M16P | -1.12 ± 0.37
161 | M16S | -0.027 ± 0.13
162 | M16D | 0.075 ± 0.23
163 | M16Y | -0.173 ± 0.22
164 | M16K | -0.301 ± 0.21
165 | M16W | -0.291 ± 0.16
166 | M16I | -0.295 ± 0.25
167 | M16F | -0.285 ± 0.31
